Our source for the Kd values is patent US20020157120A1 (University of California, published 2002).

Some results are limits rather than exact numbers.

This data set deals with the molecule itself. Put plainly: Self-association (oligomer dissociation), inferred from FCS translational diffusion at about 1 nM dsRed. An excerpt:
Fluorescence was collected through the same objective, a dichroic mirror, and 525+/−50 nm (citrine) or 580+/−50 nm (dsRed) filters and focused by a 150-mm achromat into an optical fiber ([…]). The fluorescence signal was detected by a fiber-coupled avalanche photodiode (APD; SPCM-AQ-141-FC; EG & G, Salem, Mass.). The APD signal was processed by using a correlator card (ALV5000; ALV Laser, Germany), and correlation curves were fitted by using the following function (Schwille et al., supra, 2000):
Within experimental uncertainty, our estimated rotational time (i.e., protein volume) agrees with the tetramer hypothesis of dsRed configuration.

B1: Discosoma red fluorescent protein, dsRed (other)
chain: MRSSKNVIKEFMRFKVRMEGTVNGHEFEIEGEGEGRPYEGHNTVKLKVTKGGPLPFAWDILSPQFQYGSKVYVKHPADIPDYKKLSFPEGFKWERVMNFEDGGVVTVTQDSSLQDGCFIYKVKFIGVNFPSDGPVMQKKTMGWEASTERLYPRDGVLKGEIHKALKLKDGGHYLVEFKSIYMAKKPVQLPGYYYVDSKLDITSHNEDYTIVEQYERTEGRHHLFL
notes: Wild-type dsRed (CLONTECH DNA) cloned into pRSETB, made in JM109(DE3) E. coli and purified on NiNTA-agarose; The entries describe self-association of dsRed subunits; also called red fluorescent protein (dsRed) from coral; not shown: N-terminal tag from vector pRSETB (protein purified by nickel chelate chromatography)
A word on the Kd: it is the concentration at which binding is half-saturated. In turn, B1 showed a Kd of at most 1 nM.
